Drawing on publication doi:10.1101/2024.08.03.606473, this text covers stoichiometry N for one substance.

The target in test [1] is SidF C-trim (residues 1-443) (Aspergillus fumigatus) (UniProt Q4WF55). As to the kind of experiment: SEC. For orientation: Size exclusion chromatography separates by hydrodynamic size, large species first.
Test [2] has the same target. As to the kind of experiment: SAXS.

The term stoichiometry N denotes the number of molecules, sites or subunits per partner or assembly. On to “SidF C-trim (residues 1-443) (from UniProt Q4WF55 1-443) (domain or fragment)”, for which the stoichiometry N is 4 in test [1] and 2 in test [2].
